58 variants from the Human Domainome abundance scans (Beltran et al. 2025) can be followed below.

First the molecules themselves.
B1: SWI/SNF complex subunit SMARCC2, residues 599 to 641; numbered along this chain, Q8TAQ2 (parent)
chain: REWTEQETLLLLEALEMYKDDWNKVSEHVGSRTQDECILHFLR
B2: SWI/SNF complex subunit SMARCC1, residues 620 to 663; numbered along this chain, Q92922 (parent)
chain: GREWTEQETLLLLEALEMYKDDWNKVSEHVGSRTQDECILHFLR

± gives the uncertainty stated by the source.

The first series covers variants of B1. Kind of series: abundance fitness (aPCA) (normalised: wild type 0, dead -1); higher = more abundant; growth selection in yeast, the domain comes from the species named. Conditions: Homo sapiens.
For the variant REWTEQETLLLLEALEMYKDDWNKVSEHVGSRTQDECILHFSR [L42S], the abundance fitness was found to be 0.376 ± 0.057.
Still for that read-out and setting: to REWTEQETLLLLEALEMYKDDWNKVSEHVGSRTQDECILHFRR [L42R] belongs 0.589 ± 0.057.
As for REWTEQETLLLLEALEMYKDDWNKVSEHVGSRTQDECILHFKR [L42K], the abundance fitness came to 0.895 ± 0.13.
The same measure, in the same setting: next, REWTEQETLLLLEALEMYKDDWNKVSEHVGSRTQDECILHFFR [L42F]: 0.139 ± 0.067; REWTEQETLLLLEALEMYKDDWNKVSEHVGSRTQDECILHFGR [L42G]: 0.447 ± 0.065.
On the same count and under the same terms, to REWTEQETLLLLEALEMYKDDWNKVSEHVGSRTQDECILHFTR [L42T] belongs 0.519 ± 0.087; to REWTEQETLLLLEALEMYKDDWNKVSEHVGSRTQDECILHFWR [L42W], 0.049 ± 0.14.
The same measure, in the same setting: to REWTEQETLLLLEALEMYKDDWNKVSEHVGSRTQDECILHFVR [L42V] belongs 0.343 ± 0.06.
For the variant REWTEQETLLLLEALEMYKDDWNKVSEHVGSRTQDECILHFQR [L42Q], the abundance fitness was 0.351 ± 0.098.
Same read-out and setting: to REWTEQETLLLLEALEMYKDDWNKVSEHVGSRTQDECILHFMR [L42M] belongs 0.167 ± 0.13; to REWTEQETLLLLEALEMYKDDWNKVSEHVGSRTQDECILHFHR [L42H], 0.615 ± 0.16.

Another series covers variants of B2. Described as above. Conditions: Homo sapiens.
Take GREWTRQETLLLLEALEMYKDDWNKVSEHVGSRTQDECILHFLR [E6R]: the abundance fitness is -0.137 ± 0.062.
Turning to GREWTIQETLLLLEALEMYKDDWNKVSEHVGSRTQDECILHFLR [E6I], the abundance fitness is -0.12 ± 0.075.
Take GREWTWQETLLLLEALEMYKDDWNKVSEHVGSRTQDECILHFLR [E6W]: the abundance fitness was -0.155 ± 0.083.
Consider GREWTAQETLLLLEALEMYKDDWNKVSEHVGSRTQDECILHFLR [E6A], for which the abundance fitness was found to be 0.071 ± 0.056.
Still for that read-out and setting: to GREWTFQETLLLLEALEMYKDDWNKVSEHVGSRTQDECILHFLR [E6F] belongs -0.265 ± 0.072.
The same measure, in the same setting: next, GREWTTQETLLLLEALEMYKDDWNKVSEHVGSRTQDECILHFLR [E6T]: -0.12 ± 0.052; GREWTKQETLLLLEALEMYKDDWNKVSEHVGSRTQDECILHFLR [E6K]: 0.181 ± 0.081.
On the same count and under the same terms, next, GREWTLQETLLLLEALEMYKDDWNKVSEHVGSRTQDECILHFLR [E6L]: -0.234 ± 0.073; GREWTGQETLLLLEALEMYKDDWNKVSEHVGSRTQDECILHFLR [E6G]: -0.194 ± 0.076.
Take GREWTYQETLLLLEALEMYKDDWNKVSEHVGSRTQDECILHFLR [E6Y]: the abundance fitness is -0.178 ± 0.073.
Regarding GREWTDQETLLLLEALEMYKDDWNKVSEHVGSRTQDECILHFLR [E6D], the abundance fitness was -0.164 ± 0.072.
Same read-out and setting: next, GREWTSQETLLLLEALEMYKDDWNKVSEHVGSRTQDECILHFLR [E6S]: -0.441 ± 0.075; GREWTQQETLLLLEALEMYKDDWNKVSEHVGSRTQDECILHFLR [E6Q]: 0.212 ± 0.075.
Still for that read-out and setting: next, GREWTVQETLLLLEALEMYKDDWNKVSEHVGSRTQDECILHFLR [E6V]: -0.227 ± 0.072; GREWTMQETLLLLEALEMYKDDWNKVSEHVGSRTQDECILHFLR [E6M]: 0.099 ± 0.073.
Still for that read-out and setting: next, GREWTNQETLLLLEALEMYKDDWNKVSEHVGSRTQDECILHFLR [E6N]: -0.17 ± 0.11; GREWTPQETLLLLEALEMYKDDWNKVSEHVGSRTQDECILHFLR [E6P]: -0.264 ± 0.069.
As to GREWTCQETLLLLEALEMYKDDWNKVSEHVGSRTQDECILHFLR [E6C], the abundance fitness was -0.069 ± 0.073.
Same read-out and setting: next, GRECTEQETLLLLEALEMYKDDWNKVSEHVGSRTQDECILHFLR [W4C]: -0.526 ± 0.16; GRELTEQETLLLLEALEMYKDDWNKVSEHVGSRTQDECILHFLR [W4L]: -0.285 ± 0.08; GREVTEQETLLLLEALEMYKDDWNKVSEHVGSRTQDECILHFLR [W4V]: -0.147 ± 0.14.
Same read-out and setting: to GRESTEQETLLLLEALEMYKDDWNKVSEHVGSRTQDECILHFLR [W4S] belongs -0.08 ± 0.12; to GREHTEQETLLLLEALEMYKDDWNKVSEHVGSRTQDECILHFLR [W4H], -0.4 ± 0.21; to GREDTEQETLLLLEALEMYKDDWNKVSEHVGSRTQDECILHFLR [W4D], -0.168 ± 0.084.
Regarding GREETEQETLLLLEALEMYKDDWNKVSEHVGSRTQDECILHFLR [W4E], the abundance fitness was found to be 0.023 ± 0.11.
For GREYTEQETLLLLEALEMYKDDWNKVSEHVGSRTQDECILHFLR [W4Y], the abundance fitness is -0.23 ± 0.18.
As for GREGTEQETLLLLEALEMYKDDWNKVSEHVGSRTQDECILHFLR [W4G], the abundance fitness is -0.153 ± 0.086.
The same measure, in the same setting: to GRERTEQETLLLLEALEMYKDDWNKVSEHVGSRTQDECILHFLR [W4R] belongs -0.084 ± 0.094.
On the same count and under the same terms, next, GRENTEQETLLLLEALEMYKDDWNKVSEHVGSRTQDECILHFLR [W4N]: -0.265 ± 0.16; GREMTEQETLLLLEALEMYKDDWNKVSEHVGSRTQDECILHFLR [W4M]: -0.141 ± 0.11; GRETTEQETLLLLEALEMYKDDWNKVSEHVGSRTQDECILHFLR [W4T]: -0.134 ± 0.23.
The same measure, in the same setting: next, GREATEQETLLLLEALEMYKDDWNKVSEHVGSRTQDECILHFLR [W4A]: -0.254 ± 0.17; GREITEQETLLLLEALEMYKDDWNKVSEHVGSRTQDECILHFLR [W4I]: 0.253 ± 0.18.
For the variant GREWTEGETLLLLEALEMYKDDWNKVSEHVGSRTQDECILHFLR [Q7G], the abundance fitness is -0.052 ± 0.16.
Consider GREWTEPETLLLLEALEMYKDDWNKVSEHVGSRTQDECILHFLR [Q7P], for which the abundance fitness was -0.381 ± 0.34.
With GREWTETETLLLLEALEMYKDDWNKVSEHVGSRTQDECILHFLR [Q7T], the abundance fitness was determined as 0.075 ± 0.19.
Still for that read-out and setting: next, GREWTEVETLLLLEALEMYKDDWNKVSEHVGSRTQDECILHFLR [Q7V]: -0.227 ± 0.28; GREWTERETLLLLEALEMYKDDWNKVSEHVGSRTQDECILHFLR [Q7R]: 0.206 ± 0.15; GREWTEIETLLLLEALEMYKDDWNKVSEHVGSRTQDECILHFLR [Q7I]: 0.341 ± 0.15.
Still for that read-out and setting: next, GREWTELETLLLLEALEMYKDDWNKVSEHVGSRTQDECILHFLR [Q7L]: -0.578 ± 0.46; GKEWTEQETLLLLEALEMYKDDWNKVSEHVGSRTQDECILHFLR [R2K]: 0.244 ± 0.067.
Turning to GDEWTEQETLLLLEALEMYKDDWNKVSEHVGSRTQDECILHFLR [R2D], the abundance fitness amounted to 0.237 ± 0.11.
The same measure, in the same setting: to GNEWTEQETLLLLEALEMYKDDWNKVSEHVGSRTQDECILHFLR [R2N] belongs 0.288 ± 0.068.
On the same count and under the same terms, next, GIEWTEQETLLLLEALEMYKDDWNKVSEHVGSRTQDECILHFLR [R2I]: 0.415 ± 0.096.
On the same count and under the same terms, to GQEWTEQETLLLLEALEMYKDDWNKVSEHVGSRTQDECILHFLR [R2Q] belongs -0.298 ± 0.35; to GLEWTEQETLLLLEALEMYKDDWNKVSEHVGSRTQDECILHFLR [R2L], -0.719 ± 0.11; to GTEWTEQETLLLLEALEMYKDDWNKVSEHVGSRTQDECILHFLR [R2T], 0.174 ± 0.077.
